# Measured values: article doi:10.1101/2021.06.06.446989
# Like-named read-outs stand apart in the source and are kept apart here.
# How the values were obtained:
# [1] = target: RXFP1(1-72)-L7K/K17A (human); experiment: 15N-CPMG relaxation dispersion NMR
# [2] = target: RXFP1(1-72), RXFP1 LDLa module and its 32-residue linker (human); experiment: 15N-CPMG relaxation dispersion NMR
# [3] = target: RXFP2(1-65)-ExLink2 (human); experiment: NMR titration
# [4] = target: RXFP1(1-72), RXFP1 LDLa module and its 32-residue linker (human); experiment: NMR titration
# D42A-RXFP1(1-72) (human) = experiment: NMR titration
# [5] = target: RXFP2(1-65)-ExLink2 (human); experiment: NMR titration; remark: listed apart in the source
# [6] = target: RXFP2(1-65), RXFP2 LDLa module and its 26-residue linker (human); experiment: NMR titration
# W46A-RXFP1(1-72) (human) = experiment: NMR titration
# [7] = target: RXFP1(1-72), RXFP1 LDLa module and its 32-residue linker (human); experiment: NMR titration; remark: listed apart in the source
# [8] = target: RXFP1, wild-type receptor expressed on HEK293T cells (human) (UniProt Q9HBX9); experiment: saturation binding of Europium-labelled ligand on cells
# Sequence of UniProt Q9HBX9 (Q9HBX9 whole entry): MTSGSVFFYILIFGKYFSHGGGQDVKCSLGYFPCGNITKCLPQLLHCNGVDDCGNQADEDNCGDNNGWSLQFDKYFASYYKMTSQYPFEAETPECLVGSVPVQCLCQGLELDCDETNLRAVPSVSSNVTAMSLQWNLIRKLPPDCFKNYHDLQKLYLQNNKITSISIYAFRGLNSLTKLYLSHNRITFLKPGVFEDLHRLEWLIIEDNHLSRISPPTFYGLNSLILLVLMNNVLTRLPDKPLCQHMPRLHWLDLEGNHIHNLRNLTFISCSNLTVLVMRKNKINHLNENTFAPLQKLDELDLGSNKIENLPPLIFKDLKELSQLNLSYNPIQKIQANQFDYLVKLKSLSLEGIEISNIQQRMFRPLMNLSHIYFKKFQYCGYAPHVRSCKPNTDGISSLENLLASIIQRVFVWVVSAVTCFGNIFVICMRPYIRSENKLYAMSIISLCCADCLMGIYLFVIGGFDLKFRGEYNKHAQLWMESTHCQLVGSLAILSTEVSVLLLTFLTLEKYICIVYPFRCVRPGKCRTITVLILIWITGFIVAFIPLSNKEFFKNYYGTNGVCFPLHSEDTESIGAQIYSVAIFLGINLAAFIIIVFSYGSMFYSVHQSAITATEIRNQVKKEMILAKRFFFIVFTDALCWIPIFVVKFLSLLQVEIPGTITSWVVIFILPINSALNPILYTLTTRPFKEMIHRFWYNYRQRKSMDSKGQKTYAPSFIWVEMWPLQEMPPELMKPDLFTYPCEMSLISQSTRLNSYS
# [9] = target: RXFP2F11, chimera of the LDLa and GDxxGWxxxF motif (Met1-Phe51) of RXFP2 and the remainder of RXFP1 (human); experiment: as above
Kd [1] [µM],Kd [2] [µM],Kd [3] [µM],Kd [4] [µM],fold decrease in affinity against wild-type RXFP1(1-72) (D42A-RXFP1(1-72) (human)) [fold],Kd [5] [µM],Kd [6] [µM],fold decrease in affinity against wild-type RXFP1(1-72) (W46A-RXFP1(1-72) (human)) [fold],Kd [7] [µM],Kd [8] [µM],Kd [9] [µM],Substance
30,25,482,442,4,171,205,4,85,,,amidated H2 relaxin (both the A and B-chain C-termini amidated) (ligand)
,,,,,,,,,0.0006,> 0.02,"H2 relaxin, native recombinant (serelaxin), Europium-labelled for the binding assay (ligand)"
